Biological target: FLAG-tagged PACS-2 (UniProt Q86VP3 1-889)
Assay: co-IP

FLAG-tagged PACS-2, sequence (Q86VP3 whole entry): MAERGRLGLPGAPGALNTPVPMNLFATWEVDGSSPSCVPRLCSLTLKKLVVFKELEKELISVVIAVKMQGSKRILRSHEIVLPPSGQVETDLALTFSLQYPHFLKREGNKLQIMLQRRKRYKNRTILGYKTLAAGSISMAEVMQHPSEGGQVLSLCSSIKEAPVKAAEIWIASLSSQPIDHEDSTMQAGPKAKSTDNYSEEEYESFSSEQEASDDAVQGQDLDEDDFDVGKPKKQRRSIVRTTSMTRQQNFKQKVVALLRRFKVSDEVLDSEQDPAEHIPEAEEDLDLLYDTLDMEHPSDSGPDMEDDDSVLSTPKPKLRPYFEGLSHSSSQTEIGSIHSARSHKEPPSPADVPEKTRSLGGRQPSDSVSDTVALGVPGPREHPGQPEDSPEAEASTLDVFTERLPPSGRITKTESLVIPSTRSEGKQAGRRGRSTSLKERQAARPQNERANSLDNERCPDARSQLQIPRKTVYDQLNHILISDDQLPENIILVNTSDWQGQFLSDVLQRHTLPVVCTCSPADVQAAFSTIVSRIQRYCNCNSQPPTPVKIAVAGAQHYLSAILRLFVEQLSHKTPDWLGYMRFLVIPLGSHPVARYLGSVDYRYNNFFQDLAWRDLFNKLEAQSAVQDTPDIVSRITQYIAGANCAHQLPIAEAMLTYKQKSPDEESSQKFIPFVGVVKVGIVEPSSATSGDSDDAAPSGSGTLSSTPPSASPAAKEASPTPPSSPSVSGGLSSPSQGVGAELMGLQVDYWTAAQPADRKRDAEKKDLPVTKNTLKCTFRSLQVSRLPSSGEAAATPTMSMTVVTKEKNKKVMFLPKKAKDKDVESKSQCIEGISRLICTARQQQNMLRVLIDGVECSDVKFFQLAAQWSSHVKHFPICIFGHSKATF

| fold enhancement of the co-IP in the presence of DBC1 [fold] | Binder |
| --- | --- |
| > 8 | V5-tagged mouse SIRT1 (enzyme, UniProt Q923E4 1-737, looked up) MADEVALALQAAGSPSAAAAMEAASQPADEPLRKRPRRDGPGLGRSPGEPSAAVAPAAAGCEAASAAAPAALWREAAGAAASAEREAPATAVAGDGDNGSGLRREPRAADDFDDDEGEEEDEAAAAAAAAAIGYRDNLLLTDGLLTNGFHSCESDDDDRTSHASSSDWTPRPRIGPYTFVQQHLMIGTDPRTILKDLLPETIPPPELDDMTLWQIVINILSEPPKRKKRKDINTIEDAVKLLQECKKIIVLTGAGVSVSCGIPDFRSRDGIYARLAVDFPDLPDPQAMFDIEYFRKDPRPFFKFAKEIYPGQFQPSLCHKFIALSDKEGKLLRNYTQNIDTLEQVAGIQRILQCHGSFATASCLICKYKVDCEAVRGDIFNQVVPRCPRCPADEPLAIMKPEIVFFGENLPEQFHRAMKYDKDEVDLLIVIGSSLKVRPVALIPSSIPHEVPQILINREPLPHLHFDVELLGDCDVIINELCHRLGGEYAKLCCNPVKLSEITEKPPRPQKELVHLSELPPTPLHISEDSSSPERTVPQDSSVIATLVDQATNNNVNDLEVSESSCVEEKPQEVQTSRNVENINVENPDFKAVGSSTADKNERTSVAETVRKCWPNRLAKEQISKRLEGNQYLFVPPNRYIFHGAEVYSDSEDDVLSSSSCGSNSDSGTCQSPSLEEPLEDESEIEEFYNGLEDDTERPECAGGSGFGADGGDQEVVNEAIATRQELTDVNYPSDKS |
| > 8 | V5-tagged human SIRT1 (enzyme, UniProt Q96EB6 1-747, looked up) MADEAALALQPGGSPSAAGADREAASSPAGEPLRKRPRRDGPGLERSPGEPGGAAPEREVPAAARGCPGAAAAALWREAEAEAAAAGGEQEAQATAAAGEGDNGPGLQGPSREPPLADNLYDEDDDDEGEEEEEAAAAAIGYRDNLLFGDEIITNGFHSCESDEEDRASHASSSDWTPRPRIGPYTFVQQHLMIGTDPRTILKDLLPETIPPPELDDMTLWQIVINILSEPPKRKKRKDINTIEDAVKLLQECKKIIVLTGAGVSVSCGIPDFRSRDGIYARLAVDFPDLPDPQAMFDIEYFRKDPRPFFKFAKEIYPGQFQPSLCHKFIALSDKEGKLLRNYTQNIDTLEQVAGIQRIIQCHGSFATASCLICKYKVDCEAVRGDIFNQVVPRCPRCPADEPLAIMKPEIVFFGENLPEQFHRAMKYDKDEVDLLIVIGSSLKVRPVALIPSSIPHEVPQILINREPLPHLHFDVELLGDCDVIINELCHRLGGEYAKLCCNPVKLSEITEKPPRTQKELAYLSELPPTPLHVSEDSSSPERTSPPDSSVIVTLLDQAAKSNDDLDVSESKGCMEEKPQEVQTSRNVESIAEQMENPDLKNVGSSTGEKNERTSVAGTVRKCWPNRVAKEQISRRLDGNQYLFLPPNRYIFHGAEVYSDSEDDVLSSSSCGSNSDSGTCQSPSLEEPMEDESEIEEFYNGLEDEPDVPERAGGAGFGTDGDDQEAINEAISVKQEVTDMNYPSNKS |

— publication PMC6309500 (Molecular cell, 2018)
